The results in this text go back to publication PMC6637110.

The target of this test is its substrates (DNA-bound substrates of p97 on plasmid isolated from extract with p97i). Nature of the test: pull-down; dilution experiment: plasmid incubated 180 minutes in extract with CB-5083, isolated by plasmid pull-down, washed, resuspended in 100 volumes of ELB with or without 5 mM ATP, 21 °C; p97 retained on bead-bound DNA by Western blot over time. Background: Immunoblotting shows a protein as a band on a membrane.

As to “p97 (endogenous, Xenopus egg extract) (from UniProt P23787 1-805) (natural protein)”, the decrease of DNA-bound p97 within 180 minutes, with ATP was 90% and the decrease of DNA-bound p97 within 180 minutes, without ATP is 70%.
